Results: patent US20030084466A1, “System and method for controlling male fertility” (priority 2000, published 2003)

Test system: Akt
Assay: SCF-induced Akt activation (Akt in vitro kinase assay, histone H2B substrate) in primary bone marrow-derived mast cells
Assay type: cell-based, mouse

B1: SCF: murine stem cell factor (R & D Systems, Inc.), bivalent ligand of the Kit receptor (protein)
chain: KEICGNPVTDNVKDITKLVANLPNDYMITLNYVAGMDVLPSHCWLRDMVIQLSLSLTTLLDKFSNISEGLSNYSIIDKLGKIVDDLVLCMEENAPKNIKESPKRPETRSFTPEEFFSIFNRSIDAFKDFMVASDTSDCVLSSTLGPEKDSRVSVTKPFMLPPVA
B1 was tested, and the Akt activation (+/+ and loxP/loxP mast cells, 100 ng/ml murine SCF, 8 minutes, 37° C.) was 5 fold and the “Akt activation relative to wild type levels” value (Y719F/Y719F mast cells, SCF stimulation) was 12%.
